Results reported in the supplement of paper PMC9170038.

System: MS2 coat protein
Experiment: apparent KD of MS2 coat protein; designed switch direction (-1 OFF switch, 1 ON switch): 1; higher = weaker reporter binding
How it was run: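 Designed RNA switches sharing common flanks were transcribed on Illumina chips by stalled E. coli RNA polymerase. They were titrated with SNAP-549-labelled MS2 coat protein, from 0.7 or 1.5 nM doubling to 3 µM, in Tris-HCl pH 7.5 buffer with KCl, MgCl2, BSA, DTT, tRNA and Tween-20. Titrations ran without input, with 200 uM small-molecule ligand, or with an oligonucleotide input. The apparent KD of each design is the median over its clusters, after curve-fitting of normalised cluster fluorescence.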

[1] = input ligand: microRNA oligo, concentration not stated
[2] = Eterna round: R95, input ligand: FMN 200 uM
[3] = Eterna round: R95, input ligand: microRNA oligo, concentration not stated
[4] = Eterna round: R95, input ligand: none

| Sequence | apparent KD of MS2 coat protein (input ligand: FMN 200 uM) | apparent KD of MS2 coat protein [1] | apparent KD of MS2 coat protein (input ligand: none) | apparent KD of MS2 coat protein [2] | apparent KD of MS2 coat protein [3] | apparent KD of MS2 coat protein [4] |
| --- | --- | --- | --- | --- | --- | --- |
| CUGAGCGAUCGAGGAUAUCACGUCGAAUAGACGUGAGAAGGCGAUCAUAACAUGAGGAUCACCCAUGUAUUACAUGAAGCUCAG [SSNG1/4-A1] (Eterna round: R96, puzzle: Same State NG 1) | 13.2 nM | 10.5 nM | 17.8 nM |  |  |  |
| UUUAGCGUUACAGGAUAUGGUGAGGAUUACCCACUAGAAGGGUAAACAUGUGCGUCGGACAUGAGGAUCACCCAUGUAGGGCGU (Eterna round: R96, puzzle: Same State NG 1) | 28.4 nM | 21.6 nM | 32.4 nM |  |  |  |
| UUUCCAUAGAUAGGAUAUCAGUUUACAUGAGGAUCACCCAUGUUCUCUUUGGUUUUAAUUUUUUCUGAGAAGGAUCUUGAUGAA [JR_SSNG2_Sub001] (Eterna round: R96, puzzle: Same State NG 2) | 20.6 nM | 17.7 nM | 25.1 nM |  |  |  |
| GGAGCCGGCACUGAGGAUAUUCAUAUUAAAACAUGAGGAUCACCCAUGUGGGCCAGAAGGCCUUGGGAGAAGGCAGGUCGGCCCG [Bibimoar - 4] (puzzle: Same State 2) |  |  |  | 20.2 nM | 140 nM | 183 nM |
| CUGAGAAGUCAAGGAUAUCACGUCGAUUAGACGUGAGAAGGUGAUCAUUACAUGAGGAUCACCCAUGUGUUACAUGGAACUCAG [Brourd's SSNG1/1-A2 mod 7] (Eterna round: R96, puzzle: Same State NG 1) | 672 nM | 659 nM | 762 nM |  |  |  |
| GUUCCACAUGAGGAUCACCCAUGUCACGAACACGCAGGAUAUUGCCUGAGUUUGGACAGGUAAGAAGGGUGAGAGA [Dibeante] (puzzle: Same State 1) |  |  |  | 64.3 nM | 31.9 nM | 28.9 nM |
| AGCUAUCGAAAACGAUAGCAAAAGCAUGUACAUGAGGAUCACCCAUGUCAUGUACAAGCUUUUUGCUCGUCUUAAAA [JL zipper 23] (Eterna round: R96, puzzle: Sensor for hsa-mir-208a) | 919 nM | 14.3 nM | 1000 nM |  |  |  |
| AGUCCAGCGAAAGCUGGACAAAAGCAUGUACAUGAGGAUCACCCAUGUUCAUGUACAAGCUUUUUGUUCGUCUUAAA [JL mod - D95 - 14] (puzzle: Sensor for hsa-mir-208a) |  |  |  | 314 nM | 13.4 nM | 601 nM |
| GGUCCAGCCUGAGCUGGACAAAAGCAUGUACAUGAGGAUCACCCAUGUCAUGUACAAGCUUUUUGCUCGUCAAAAGG [Mat - hsa-mir-208a - 102] (puzzle: Sensor for hsa-mir-208a) |  |  |  | 54.3 nM | 16 nM | 89.5 nM |
| ACAUGAGACUCAGGAUAUCAUGUACCUACAUGUGACAUGAGGAUCACCCAUGUGGUAAGUAUGACUGAGAAGGGAGAGAUAUGU [Equivalance 88 - Jieux - Same State NG 2] (Eterna round: R96, puzzle: Same State NG 2) | 63.7 nM | 159 nM | 248 nM |  |  |  |
| GGAGCCGGCACUGAGGAUAUUCAUAUUAAAACAUGAGGAUCACCCAUGUAGGCCAGAAGGCCAUGGGAGAAGGCAGGUCGGCCCG [Bibimoar - 7] (puzzle: Same State 2) |  |  |  | 46.7 nM | 211 nM | 416 nM |
| GAGUAGUUGAAAGGAUAUAGAUUAUUGUAGGAUCUAGAAGGUUCUAACAUGAGGAUCACCCAUGUAGGACUAUUCCUGUGUAUC [Parity 88 - Jieux - Same State NG 1] (Eterna round: R96, puzzle: Same State NG 1) | 9.56 nM | 9.27 nM | 12.6 nM |  |  |  |
| UUAAUAAAUCAAGGAUAUCACGUCGAAUAGACGUGAGAAGGUGAUCAUAACAUGAGGAUCACCCAUGUAUUACAUGAAUAUUAA [SSNG1/1-B1] (Eterna round: R96, puzzle: Same State NG 1) | 522 nM | 40 nM | 512 nM |  |  |  |
| GUGGAGGGUUGAGGAUAUUGAAUACAUAUGUUUAACAUGAGGAUCACCCAUGUGGGUUGCGGUAUCGAGAAGGUAAAUUGCUGG [salish99_SSNG2_r04_037] (Eterna round: R96, puzzle: Same State NG 2) |  | 72.1 nM |  |  |  |  |
| CGGGUACAUGAGGAUCACCCAUGUUGGAGUAAUGCAGGAUAUGUGAGACGAGAUGAUAAAACAGAAGGGCAAGGAG [JR_SS!_Sub010] (puzzle: Same State 1) |  |  |  | 50.2 nM | 70.5 nM | 123 nM |
| GAAGGAUGAGCGUAGGAUAUAGGAGGAGUGACAUGAGGAUCACCCAUGUAGUAGGAGGGAGGGUACUAGAAGGACGAGGAAGAGG [JR_SS2_Sub068] (puzzle: Same State 2) |  |  |  | 67 nM | 32.2 nM | 57.4 nM |
| CGUCCGGCCUGUGCUGGCCGGUUGCAUGUACAUGAGGAUCACCCAUGUUCAUGUGCAGGCUUUUUGCUCGUCUUGUG [salish99_mir208a_013] (puzzle: Sensor for hsa-mir-208a) |  |  |  | 19.4 nM | 11.2 nM | 18.9 nM |
| AAAUGUAGGAAACAACAGCAAGAGCAUGUACAUGAGGAUCACCCAUGUCAUGUACAAGCUUUUUGCUGGUCUUAUUA [ak 2 mod of one Eli's designs..] (puzzle: Sensor for hsa-mir-208a) |  |  |  | 23.7 nM | 31 nM | 19.6 nM |
| UGUACUUUCAUAGGAUAUCAUGCGAAAAUUGCGUGAGAAGGGUGAAUACUGUCUUUCUAAGAGUACAUGAGGAUCACCCAUGUA [SameState NG1 #63] (Eterna round: R96, puzzle: Same State NG 1) | 77.3 nM | 80.2 nM | 67.5 nM |  |  |  |
| GGUAUCGACGCAGGAUAUGCUAUCCUUUGGGUAGCAGAAGGGUGAACAUGAGGAUCACCCAUGUGGGUGCCAGGGCGUGAGCCC [JL SSNG1 1.82] (Eterna round: R96, puzzle: Same State NG 1) | 694 nM | 18.2 nM | 86.8 nM |  |  |  |
| CGGACUCCCUUAGGAUAUGGGAAAGGAAGUGUACCAGAAGGAAGGGUUCCGAUCCUCCAACAUGAGGAUCACCCAUGUAUGAGG [PowerStrip SSNG 1.3] (Eterna round: R96, puzzle: Same State NG 1) | 16.3 nM | 21.3 nM | 22.6 nM |  |  |  |
| CAAGAAAACGCAGGAUAUACUCGGGCUACCCGAGUAGAAGGGUGACACAUGAGGAUCACCCAUGUACAUAGCAUUAGCUAUGGA [Onedve] (Eterna round: R96, puzzle: Same State NG 1) | 2270 nM | 827 nM | 770 nM |  |  |  |
| AAAAAACAUGAGGAUCACCCAUGUAAAAAUAUGGGAGGAUAUUCAAACACGAAAGUGAAAGAAGAAGGCCUAAAAA [SS! MT 18] (Eterna round: R96, puzzle: Same State 1) | 17.5 nM | 56.7 nM | 81.3 nM |  |  |  |
| UGGCUCAGACUAGGAUAUAUGCGAUCACAUGAGGAUCACCCAUGUCUCGAGCUUCGGCUCGAGGCAUAGAAGGAGUCUGAGCCU [SSNG2/4-D3] (Eterna round: R96, puzzle: Same State NG 2) | 14.8 nM | 35.5 nM | 46.7 nM |  |  |  |
| AGGCCAUCAGGAGGAUAUGGCACCUUAUUGGUGCCAGAAGGUCUAACAUGAGGAUCACCCAUGUGGGUGUGGUCGAAAGACCAC [Fiskers NG1(ss) - 5] (Eterna round: R96, puzzle: Same State NG 1) | 99.9 nM | 71.2 nM | 98 nM |  |  |  |
| GCCGCGUUUAACGCCUACAUGAGGAUCACCCAUGUAUGUAGGCAGGAUAUCGUUUGCUUUGCAAACGAGAAGGGCUGUAGUGGC [salish99_SSNG3_R04_006] (Eterna round: R96, puzzle: Same State NG 3) | 25.9 nM | 73.9 nM | 80.9 nM |  |  |  |
| GGUACCAUCACAGGAUAUGCUAUCCUUUGGGUAGCAGAAGGGUGAAACAUGAGGAUCACCCAUGUGGUGCCAGGGCGUGAGCCC [JL SSNG1 1.92] (Eterna round: R96, puzzle: Same State NG 1) | 31.2 nM | 398 nM | 689 nM |  |  |  |
| AAGCUCGUGUGAGGAUAUGCCGCCGUUUCGGCUGCAGAAGGUGCUACGUUACAUGAGGAUCACCCAUGUCUCUGUUGUUUCGUA [salish99_SSNG1_r04_952] (Eterna round: R96, puzzle: Same State NG 1) |  | 37 nM |  |  |  |  |
